B1: NT7 protein fragment (N-terminal T7 RNA polymerase fragment without Tlpa coiled-coil) (other)
chain: MNTINIAKNDFSDIELAAIPFNTLADHYGERLAREQLALEHESYEMGEARFRKMFERQLKAGEVADNAAAKPLITTLLPKMIARINDWFEEVKAKRGKRPTAFQFLQEIKPEAVAYITIKTTLACLTSADNTTVQAVASAIGRAIEDEARFGRIRDLEAKHFKKNVEEQLNKRVGHVYKKAFMQVVEADMLSKGLLGGEAWSSWHKEDSIHVGVRCIEMLIESTGMVSLHRQNAGVVGQDSETIELAPEYAEAIATRAGALAGISPMFQPCVVPPKPWTGITGGGYWANGRRPLALVRTHSKKALMRYEDVYMPEVYKAINIAQNTAWKINKKVLAVANVITKWKHCPVEDIPAIEREELPMKPEDIDMNPEALTAWKRAAAAVYRKDKARKSRRISLEFMLEQANKFANHKAIWFPYNMDWRGRVYAVSMFNPQGNDMTKGLLTLAKGKPIGKEGYYWLKIHGANCAGVDKVPFPERIKFIEENHENIMACAKSPLENTWWAEQDSPFCFLAFCFEYAGVQHHGLSYNCSLPLAFDGSCSGIQHFSAMLRDEVGGRAVNLLP

How the values were obtained:
[1] = biological target: CT7-Tlpa coil fusion protein (Tlpa coiled-coil domain - GGSGG linker - C-terminal T7 RNA polymerase fragment) (T7 phage); assay: cell-based or functional assay
[2] = biological target: CT7 protein fragment (C-terminal T7 RNA polymerase fragment without Tlpa coiled-coil) (T7 phage, UniProt P00573 564-883); assay: cell-based or functional assay

Row | Molecule | fold-difference of pT7-GFP reporter between 30° C. and 42° C., Thermal-T7RNAP(v3) [1] [fold] | half-activation temperature Km of pT7-GFP reporter, Thermal-T7RNAP(v1) [1] [° C.] | half-activation temperature Km of pT7-GFP reporter, Thermal-T7RNAP(v2) [1] [° C.] | half-activation temperature Km of pT7-GFP reporter, Thermal-T7RNAP(v3) [1] [° C.] | maximum repression capacity Kinh of pT7-GFP reporter, Thermal-T7RNAP(v1) [1] | maximum repression capacity Kinh of pT7-GFP reporter, Thermal-T7RNAP(v2) [1] | maximum repression capacity Kinh of pT7-GFP reporter, Thermal-T7RNAP(v3) [1] | fold-difference of pT7-GFP reporter between 30° C. and 42° C., Split-T7 system (no Tlpa coil) [2] [fold]
1 | NT7-Tlpa coil fusion protein (N-terminal T7 RNA polymerase fragment - GGSGG linker - Tlpa coiled-coil domain) | 24 | 37.5 | 38.4 | 36.3 | 0.957 | 0.427 | 0.971 | –
2 | B1 | – | – | – | – | – | – | – | 4

Source: patent US20240035059A1 (NATIONAL UNIVERSITY OF SINGAPORE, published 2024)
